The supplement of paper PMC7125110
± gives the standard error. Variants at the floor of the assay were thinned out.

B1: glmS ribozyme (parent)
chain: AUAAAAGCGCCAGAACUACAGAAAUGUAGUUGACGAGGAGGAGGUUUAUCGAAUUUUCGGCGGAUGCCUCCAAA

Legend:
Settings in all cases: with glucosamine-6-phosphate
glucosamine-6-phosphate [1] = variants of: B1; assay: self-cleavage kobs at 40 uM GlcN6P; higher = faster cleavage; RNA array
Procedure, shortened: (§1)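 Using a hybridised Cy3 probe at 37 °C, barcoded ribozyme variants transcribed in situ by E. coli RNA polymerase on sequenced MiSeq chips were monitored across tiles imaged over ~14 h. The flow contained glucosamine-6-phosphate from 40 μM to 10 mM in HEPES/KCl/Mg(OAc)2 buffer. Signals were normalised to baseline and to non-cleaving reference variants before per-tile medians were fit to one- or two-exponential decays to yield kobs. Weighted Michaelis–Menten fits across concentrations gave kcat and KM.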

glucosamine-6-phosphate [2] = variants of: B1; assay: self-cleavage kobs at 160 uM GlcN6P; higher = faster cleavage; RNA array
Procedure, shortened: as §1

glucosamine-6-phosphate [3] = variants of: B1; assay: self-cleavage kobs at 2500 uM GlcN6P; higher = faster cleavage; RNA array
Procedure, shortened: as §1

glucosamine-6-phosphate [4] = variants of: B1; assay: self-cleavage kobs at 10000 uM GlcN6P; higher = faster cleavage; RNA array
Procedure, shortened: as §1

glucosamine-6-phosphate [5] = variants of: B1; assay: self-cleavage kobs at 640 uM GlcN6P; higher = faster cleavage; RNA array
Procedure, shortened: as §1

Variant	self-cleavage kobs at 40 uM GlcN6P (glucosamine-6-phosphate [1]) [s⁻¹]	self-cleavage kobs at 160 uM GlcN6P (glucosamine-6-phosphate [2]) [s⁻¹]	self-cleavage kobs at 2500 uM GlcN6P (glucosamine-6-phosphate [3]) [s⁻¹]	self-cleavage kobs at 10000 uM GlcN6P (glucosamine-6-phosphate [4]) [s⁻¹]	self-cleavage kobs at 640 uM GlcN6P (glucosamine-6-phosphate [5]) [s⁻¹]
A36U G37U G40A A52C C58U	< 1e-05	–	–	–	–
U57G G63U	< 1e-05	< 1e-05	< 1e-05	< 1e-05	–
C11U G59C C71G	< 1e-05	–	–	–	–
A14C U46A G59A C68G	< 1e-05	–	–	–	–
U54C C67U	0.000255 ± 4.3e-05	0.000586 ± 0.00012	0.00157 ± 0.00051	0.0047 ± 0.0014	0.000928 ± 0.00027
A36C G60U C67A	< 1e-05	–	–	< 1e-05	–
G44U C58G	< 1e-05	< 1e-05	< 1e-05	< 1e-05	< 1e-05
A6C G37A	< 1e-05	< 1e-05	< 1e-05	< 1e-05	–
G9C A42U	< 1e-05	< 1e-05	< 1e-05	–	–
U30G A42G	0.000448 ± 7.5e-05	0.000561 ± 0.00012	0.0119 ± 0.0032	0.0206 ± 0.0039	0.00469 ± 0.001
C8A A33U G44A A64U	< 1e-05	–	–	–	< 1e-05
A6G C8A C58U	< 1e-05	–	–	< 1e-05	–
C11U G44U	< 1e-05	< 1e-05	< 1e-05	–	< 1e-05
C61U C68U C70A	< 1e-05	–	< 1e-05	–	–
A14C U56G	0.00282 ± 0.00046	0.00922 ± 0.003	0.00838 ± 0.0029	0.0693 ± 0.022	0.0201 ± 0.0065
A15U G63U	< 1e-05	< 1e-05	–	< 1e-05	< 1e-05
G29A A33G A36C U45C	< 1e-05	–	–	–	–
C11G A36G U49A U65C C70U	< 1e-05	–	–	< 1e-05	–
U30C C61A	< 1e-05	–	–	< 1e-05	–
G7U A64C	< 1e-05	–	–	< 1e-05	< 1e-05
U31C G41U C70G	0.000329 ± 7e-05	–	–	0.00237 ± 0.00061	–
A6C G32C U47A	< 1e-05	–	< 1e-05	–	< 1e-05
G37U C58A G60C C70A	< 1e-05	–	–	< 1e-05	–
G13A U31A G59C C70A	< 1e-05	–	–	–	–

Variant	self-cleavage kobs at 40 uM GlcN6P (glucosamine-6-phosphate [1]) [s⁻¹]	self-cleavage kobs at 160 uM GlcN6P (glucosamine-6-phosphate [2]) [s⁻¹]	self-cleavage kobs at 2500 uM GlcN6P (glucosamine-6-phosphate [3]) [s⁻¹]	self-cleavage kobs at 10000 uM GlcN6P (glucosamine-6-phosphate [4]) [s⁻¹]	self-cleavage kobs at 640 uM GlcN6P (glucosamine-6-phosphate [5]) [s⁻¹]
G9U G66A	< 1e-05	< 1e-05	–	< 1e-05	< 1e-05
A12U C16A G29A A53U	9.7e-05 ± 2e-05	–	–	–	–
G29A A53U C58G	< 1e-05	–	–	5.28e-05 ± 2.2e-05	–
G9A C58U	< 1e-05	< 1e-05	< 1e-05	< 1e-05	< 1e-05
A52U U55A U57C C67A	< 1e-05	–	–	< 1e-05	–
G37C C50G C58G C67G	0.00014 ± 3.9e-05	0.00039 ± 0.00012	6.52e-05 ± 2.2e-05	0.000593 ± 0.00017	0.000349 ± 8.1e-05
U49C U54G	< 1e-05	< 1e-05	–	< 1e-05	< 1e-05
A6G C11U G32C	< 1e-05	–	–	–	–
C10A A39U U69C	< 1e-05	–	–	< 1e-05	–
G43C U56C	< 1e-05	< 1e-05	–	< 1e-05	< 1e-05
A6G A15U C34A	< 1e-05	< 1e-05	< 1e-05	< 1e-05	< 1e-05
G7A A14G U49C	< 1e-05	–	–	< 1e-05	–
G7A G40A A52C	< 1e-05	–	–	< 1e-05	< 1e-05
G43A U49G	< 1e-05	< 1e-05	< 1e-05	–	< 1e-05
A39C A42C C68G	< 1e-05	–	–	–	–
A48U U55G G62C	< 1e-05	–	–	< 1e-05	< 1e-05
C10A G37C A42C C70A	< 1e-05	–	–	–	–
G7C U65A	< 1e-05	–	–	< 1e-05	< 1e-05
U46C A52C	< 1e-05	< 1e-05	–	–	–
A12U A52C	< 1e-05	–	–	4.23e-05 ± 1.8e-05	–
A12G C68G C71U	< 1e-05	–	–	< 1e-05	< 1e-05
G35C A39C	< 1e-05	< 1e-05	< 1e-05	< 1e-05	< 1e-05
C10U A39U G43C	< 1e-05	–	–	< 1e-05	–
A53G U57C G63U	< 1e-05	–	–	< 1e-05	–

Variant	self-cleavage kobs at 40 uM GlcN6P (glucosamine-6-phosphate [1]) [s⁻¹]	self-cleavage kobs at 160 uM GlcN6P (glucosamine-6-phosphate [2]) [s⁻¹]	self-cleavage kobs at 2500 uM GlcN6P (glucosamine-6-phosphate [3]) [s⁻¹]	self-cleavage kobs at 10000 uM GlcN6P (glucosamine-6-phosphate [4]) [s⁻¹]	self-cleavage kobs at 640 uM GlcN6P (glucosamine-6-phosphate [5]) [s⁻¹]
A6G C8G G40A	< 1e-05	–	–	< 1e-05	–
C11A U30C	< 1e-05	< 1e-05	4.93e-05 ± 1.8e-05	–	–
C58G G60A	< 1e-05	–	–	–	–
G9U U45G	< 1e-05	< 1e-05	< 1e-05	< 1e-05	< 1e-05
C16A G62C	< 1e-05	< 1e-05	< 1e-05	< 1e-05	< 1e-05
A14G C19A A20G G21A G60A	< 1e-05	–	–	–	–
A6U G13C U69C	< 1e-05	–	–	< 1e-05	–
A53U C67U	0.000272 ± 2.9e-05	0.000713 ± 8.9e-05	0.0104 ± 0.0027	0.0214 ± 0.0049	0.00132 ± 0.00019
A36G G41A G51C C61G C67U	< 1e-05	–	–	< 1e-05	–
U54A C61A G66U	< 1e-05	–	–	–	–
G7A A14C G40A U49A C71U	< 1e-05	–	–	–	–
G7U A48G A64U	< 1e-05	–	–	< 1e-05	–
C10A G43A U45C	< 1e-05	–	–	–	–
A6C U46A	< 1e-05	< 1e-05	–	–	< 1e-05
A6U G7U C58G U69G	0.000141 ± 4.3e-05	–	–	0.000123 ± 3.5e-05	–
G9A C50G C70G	9.06e-05 ± 2.7e-05	–	–	4.63e-05 ± 1.4e-05	–
A42G G62U C68U	< 1e-05	–	–	–	–
G51U A53G	< 1e-05	< 1e-05	< 1e-05	–	< 1e-05
A42C C71G	< 1e-05	< 1e-05	< 1e-05	< 1e-05	< 1e-05
C8U G32C G60U	< 1e-05	< 1e-05	< 1e-05	< 1e-05	< 1e-05
A15G U49C	< 1e-05	–	–	–	< 1e-05
C8A A53C	< 1e-05	< 1e-05	< 1e-05	< 1e-05	< 1e-05
G9A G13C	< 1e-05	< 1e-05	< 1e-05	–	< 1e-05
A6U A42G G43C	< 1e-05	–	–	–	–

Variant	self-cleavage kobs at 40 uM GlcN6P (glucosamine-6-phosphate [1]) [s⁻¹]	self-cleavage kobs at 160 uM GlcN6P (glucosamine-6-phosphate [2]) [s⁻¹]	self-cleavage kobs at 2500 uM GlcN6P (glucosamine-6-phosphate [3]) [s⁻¹]	self-cleavage kobs at 10000 uM GlcN6P (glucosamine-6-phosphate [4]) [s⁻¹]	self-cleavage kobs at 640 uM GlcN6P (glucosamine-6-phosphate [5]) [s⁻¹]
A33G C34G G35U G38U	< 1e-05	–	–	< 1e-05	–
C11A A15G C58G C68A	8.59e-05 ± 2.2e-05	–	–	0.000145 ± 2.6e-05	–
C10U G43A C70G	< 1e-05	–	–	–	–
G44A A48C	< 1e-05	< 1e-05	< 1e-05	–	< 1e-05
C8U A48G	< 1e-05	< 1e-05	< 1e-05	< 1e-05	–
C34A C70G	< 1e-05	–	< 1e-05	–	–
U49G C61A G62U	< 1e-05	–	< 1e-05	< 1e-05	< 1e-05
A15C G38A C67G	< 1e-05	–	–	–	–
C10U A39G C71A	< 1e-05	–	–	–	–
G37A G51A A53C	< 1e-05	–	–	< 1e-05	–
U56A C61U	< 1e-05	< 1e-05	–	–	–
A12U G40A G44U	< 1e-05	–	–	–	< 1e-05
G7C U30G	< 1e-05	< 1e-05	< 1e-05	< 1e-05	< 1e-05
U31A A64G	0.000322 ± 8.5e-05	0.000708 ± 0.0002	0.00394 ± 0.0012	0.0255 ± 0.0096	0.00331 ± 0.0006
A12U U45A U49G C50U G63U U69C	< 1e-05	–	< 1e-05	< 1e-05	< 1e-05
G29C G60A	< 1e-05	< 1e-05	< 1e-05	< 1e-05	–
C8G C68U	< 1e-05	–	–	–	–
G44A A52C	< 1e-05	< 1e-05	< 1e-05	< 1e-05	< 1e-05
A33C U54A U57C	< 1e-05	–	< 1e-05	–	–
A33G U47G	< 1e-05	< 1e-05	–	< 1e-05	< 1e-05
A12U G51C	< 1e-05	< 1e-05	< 1e-05	–	< 1e-05
C10U U47A G62U A64U U69A	< 1e-05	–	–	–	–
